Like-named read-outs stand apart in the source and are kept apart here.
Assays:
Assay in all cases: native gel or EMSA
[1] = target: PduA* (PduA with a C-terminal 23 residue extension) (Salmonella typhimurium LT2)
[2] = target: PduA*(A63R) (Salmonella typhimurium LT2)
[3] = target: PduA* (PduA with a C-terminal 23 residue extension) (Salmonella typhimurium LT2); remark: listed apart in the source

Q: For “PduA* (PduA with a C-terminal 23 residue extension) (natural protein)”, which stoichiometry N [1] is on record?
A: Its stoichiometry N is 3 hexamers.

Q: How did the stoichiometry N [2] turn out when PduA*(A63R) (natural protein) was run?
A: The stoichiometry N was 3 hexamers.

B1: PduL (enzyme)
chain: MDKQQLETTVTKVLDEMRERPIPLGISNRHIHLCAEDYDRLFPNHPISEKKELLQPGQYAADQTVTLVGPKGQLKNVRLLGPLRSTSQVEISRTDARTLGIAAPLRMSGSIEGTPGVRLISPFAELDLASGVIVAQRHIHMSPLDALILRVSHGDKVSVAINGDERRLIFDNVAVRVSPDMRLEMHIDTDEANAAGADNPQAFATLVSPR
Q: For B1, which stoichiometry N [3] is on record?
A: The stoichiometry N was 1.

Q: And the stoichiometry N (PduL dimers per PduA trimer of hexamers) [3]?
A: Its stoichiometry N (PduL dimers per PduA trimer of hexamers) is 3.

From publication doi:10.1101/2022.12.30.522206
